These results are taken from paper PMC12130793, “A conserved aspartate residue in [4Fe-4S]-containing HypD is required for [NiFe]-cofactor biosynthesis and for efficient interaction of the HypCD scaffold complex with HypE” (Metallomics: Integrated Biometal Science, 2025).

To fix the notation:
B1: HypD (native, untagged) (natural protein, E. coli, UniProt P24192 1-373, looked up)
chain: MRFVDEYRAPEQVMQLIEHLRERASHLSYTAERPLRIMEVCGGHTHAIFKFGLDQLLPENVEFIHGPGCPVCVLPMGRIDTCVEIASHPEVIFCTFGDAMRVPGKQGSLLQAKARGADVRIVYSPMDALKLAQENPTRKVVFFGLGFETTMPTTAITLQQAKARDVQNFYFFCQHITLIPTLRSLLEQPDNGIDAFLAPGHVSMVIGTDAYNFIASDFHRPLVVAGFEPLDLLQGVVMLVQQKIAAHSKVENQYRRVVPDAGNLLAQQAIADVFCVNGDSEWRGLGVIESSGVHLTPDYQRFDAEAHFRPAPQQVCDDPRARCGEVLTGKCKPHQCPLFGNTCNPQTAFGALMVSSEGACAAWYQYRQQESEA
notes: Carries a [4Fe-4S] cluster; also called native HypD; WT HypD; source: E. coli BL21(DE3), co-expressed with HypC-Strep (phypDC) or with HypE, HypF and HybG-Strep (phypDEF-hybG); co-purified anaerobically
B2: HypC bearing a C-terminal StrepII-tag (natural protein, E. coli, UniProt P0AAM3 1-90, looked up)
chain: MCIGVPGQIRTIDGNQAKVDVCGIQRDVDLTLVGSCDENGQPRVGQWVLVHVGFAMSVINEAEARDTLDALQNMFDVEPDVGALLYGEEK
notes: HypC, hydrogenase maturation factor of E. coli; native HypC; also called HypC-Strep; Strep-tagged HypC; source: E. coli BL21(DE3) transformed with phypDC or phypD_(D98A)hypC, purified anaerobically (Strep tag); not shown: StrepII, C-terminal, kept
B3: HypD_(D98A) (untagged) (natural protein, E. coli, UniProt P24192 1-373, looked up)
chain: MRFVDEYRAPEQVMQLIEHLRERASHLSYTAERPLRIMEVCGGHTHAIFKFGLDQLLPENVEFIHGPGCPVCVLPMGRIDTCVEIASHPEVIFCTFGAAMRVPGKQGSLLQAKARGADVRIVYSPMDALKLAQENPTRKVVFFGLGFETTMPTTAITLQQAKARDVQNFYFFCQHITLIPTLRSLLEQPDNGIDAFLAPGHVSMVIGTDAYNFIASDFHRPLVVAGFEPLDLLQGVVMLVQQKIAAHSKVENQYRRVVPDAGNLLAQQAIADVFCVNGDSEWRGLGVIESSGVHLTPDYQRFDAEAHFRPAPQQVCDDPRARCGEVLTGKCKPHQCPLFGNTCNPQTAFGALMVSSEGACAAWYQYRQQESEA
notes: HypD of E. coli with the D98A exchange, without a tag; source: co-purified anaerobically

The target in assay [1] is B2. Put plainly: native MS; anaerobically purified HypC-Strep/HypD complexes buffer-exchanged into 500 mM ammonium acetate, pH 6.8, about 10 uM; nano-ESI Q-TOF; MS/MS with collision-induced dissociation (90 V) of the +12 charge state of the heterodimer. Particulars: both partners purified.
In the assay “HypD (native, untagged)” the target is B1. In words: pull-down; co-purification from BL21(DE3) cells by the StrepII tag (on HypD, HypC or HybG) under anoxic conditions; 5 ug of isolated protein on SDS-PAGE, immunoblot with anti-HypD or anti-HypE antiserum (1:1000). Particulars: partners not purified.
The target in the assay “HypD_(D98A) (untagged)” is B3. The description is as above. Particulars: partners not purified.

As to B1, in assay [1], the “stoichiometry N” value was 1 ratio HypC:HypD.
For B2, the binding result with HypD (native, untagged) was “binds”; in the assay with HypD_(D98A) (untagged), “binds”.
With B3, the “stoichiometry N” value in assay [1] was 1 ratio HypC:HypD.
